Experimental data reported in patent CN116173202A (BEIJING DONGFANG BIOTECH CO LTD, dated 2023).
Like-named read-outs stand apart in the source and are kept apart here.

What was measured:
Test in all cases: cell-based or functional assay
[1] = target: T1, 人单核细胞白血病细胞(THP-1)表面LILRB4 (human, UniProt Q8NHJ6 22-448)
[2] = target: T1, 人单核细胞白血病细胞(THP-1)表面LILRB4; remark: listed apart in the source
[3] = target: T1, 人单核细胞白血病细胞(THP-1)表面LILRB4; remark: listed apart in the source

Row | Binder | IC50, 抑制THP-1分泌ARG1 (arginase activity in supernatant, ApoE 0.5μg/mL) [1] [µg/mL] | IC50, 抑制THP-1分泌ARG1 (arginase activity in supernatant, ApoE 0.5μg/mL) [2] [µg/mL] | IC50, 生物学活性检测(报告基因), THP-1-NF-κB-Luc cells with ApoE [3] [µg/mL]
1 | MA-Ⅰ 鼠源抗LILRB4单克隆抗体 (mouse IgG1 / mouse Ck) (antibody) heavy: not shown light: DIVMTQTTLSLPVSPGDQASISCRSSQSLAHSNGNTYLHWYLQKPGQSPKLLIYKVSNRFSGVPDRFSGSGSGTDFTLKISRVEAEDLGVYFCSQSTLVPTFGGGTKLEIKADAAPTVSIFPPSSEQLTSGGASVVCFLNNFYPKDINVKWKIDGSERQNGVLNSWTDQDSKDSTYSMSSTLTLTKDEYERHNSYTCEATHKTSTSPIVKSFNRNEC | 23.9 | – | –
2 | 人源化抗体HA-Ⅱ (human IgG1 / human Ck) (antibody, V domains shown) VH: EVQLVESGGGLVKPGGSLRLSCAASGFTFSSYTMSWVRQAPGKGLEWVATISSGGTYTYYPDSVKGRFTISRDNAKNSLYLQMNSLRAEDTAVYYCARDGYDGFDYWGQGTTVTVSS VL: DIVMTQTPLSLSVTPGQPASISCRSSQSLAHSNGNTYLHWYLQKPGQSPQLLIYKVSNRFSGVPDRFSGSGSGTDFTLKISRVEAEDVGVYFCSQSTHVPTFGGGTKVEIKR | – | 250 | 2.68
3 | 人源化抗体HA-Ⅰ (human IgG1 / human Ck) (antibody, V domains shown) VH: EVQLVESGGGLVKPGGSLRLSCAASGFTFSSYTMSWVRQAPGKGLEWVSTISSGGTYTYYPDSVKGRFTISRDNAKNSLYLQMNSLRAEDTAVYYCARDGYDGFDYWGQGTTVTVSS VL: DIVMTQTPLSLSVTPGQPASISCRSSQSLAHSNGNTYLHWYLQKPGQSPQLLIYKVSNRFSGVPDRFSGSGSGTDFTLKISRVEAEDVGVYYCSQSTHVPTFGGGTKVEIKR | – | 31.2 | 0.756
4 | 人源化抗体HA-Ⅲ (human IgG1 / human Ck) (antibody, V domains shown) VH: EVQLVESGGGLVKPGGSLRLSCAASGFTFSSYTMSWVRQAPGKGLEWVATISSGGTYTYYPDSVKGRFTISRDNAKNSLYLQMNSLRAEDTAVYYCTRDGYDGFDYWGQGTTVTVSS VL: DIVMTQTPLSLSVTPGQPASISCRSSQSLAHSNGNTYLHWYLQKPGQSPKLLIYKVSNRFSGVPDRFSGSGSGTDFTLKISRVEAEDVGVYFCSQSTHVPTFGGGTKVEIKR | – | 98.5 | 3.44
5 | MB-Ⅰ 鼠源抗LILRB4单克隆抗体 (mouse IgG1 / mouse Ck) (antibody) heavy: QVQLQESGAELVKPGASVKLSCKASGYTFTNYWMHWVKQRPGQGLEWIGEINPSNGRTNYNEKFKTKATLTVDKSSSTAYMQLSSLTSEDSAVYYCARWGQLGLREGYYAVDYWGQGTSVTVSSAKTTPPSVYPLAPGSAAQTNSMVTLGCLVKGYFPEPVTVTWNSGSLSSGVHTFPAVLQSDLYTLSSSVTVPSSTWPSETVTCNVAHPASSTKVDKKIVPRDCGCKPCICTVPEVSSVFIFPPKPKDVLTITLTPKVTCVVVDISKDDPEVQFSWFVDDVEVHTAQTQPREEQFNSTFRSVSELPIMHQDWLNGKEFKCRVNSAAFPAPIEKTISKTKGRPKAPQVYTIPPPKEQMAKDKVSLTCMITDFFPEDITVEWQWNGQPAENYKNTQPIMDTDGSYFVYSKLNVQKSNWEAGNTFTCSVLHEGLHNHHTEKSLSHSPG light: DIVMTQSPSSLSASLGDRVTISCRASQDISNYLNWYQQKPDGTVKLLIYYTSRLHSGVPSRFSGSGSGTDYSLTISNLEQEDIATYFCQQGNTLPPTFGGGTKLEIKADAAPTVSIFPPSSEQLTSGGASVVCFLNNFYPKDINVKWKIDGSERQNGVLNSWTDQDSKDSTYSMSSTLTLTKDEYERHNSYTCEATHKTSTSPIVKSFNRNEC | 46 | – | –
